Measurements taken from PMC7706699 (Genes & Development, 2020).
Ends that are not written are not given here. * marks the point of attachment. Fluorescein(5-Mal) = O=C1OC2(c3ccc(O)cc3Oc3cc(O)ccc32)c2ccc(N3C(=O)CC(*)C3=O)cc21

Assays:
[1] = target: CPSF30 (full-length, wild type)–hFip1 (residues 79–200) complex (human, UniProt O95639-2 1-244; Q6UN15 79-200); test: SEC
[2] = target: CPSF30 (full-length, Y127A)–hFip1 (residues 79–200) complex (human, UniProt O95639-2 1-244; Q6UN15 79-200, Y127A); test: SEC
[3] = target: CPSF30 (full-length, Y151A)–hFip1 (residues 79–200) complex (human, UniProt O95639-2 1-244; Q6UN15 79-200, Y151A); test: SEC
[4] = target: human CPSF30 full-length (residues 1–244) Y127A mutant (human, UniProt O95639-2 1-244, Y127A); test: SEC
[5] = target: human CPSF30 full-length (residues 1–244) Y151A mutant (human, UniProt O95639-2 1-244, Y151A); test: SEC
[6] = target: T1, human CPSF30 ZF2–C terminus (residues 62–244), wild type (human, UniProt O95639-2 62-244); test: fluorescence polarisation
[7] = target: T2, human CPSF30 (residues 62–244) Y127A mutant (human, UniProt O95639-2 62-244, Y127A); test: fluorescence polarisation
[8] = target: T3, human CPSF30 (residues 62–244) Y151A mutant (human, UniProt O95639-2 62-244, Y151A); test: fluorescence polarisation
[9] = target: human CPSF30 ZF4–ZF5 (residues 114–173) (human, UniProt O95639-2 114-173); test: crystal structure
[10] = target: T1, human CPSF30 ZF2–C terminus (residues …); test: SEC
[11] = target: T2, human CPSF30 (residues 62–244) Y127A …; test: SEC
[12] = target: T3, human CPSF30 (residues 62–244) Y151A …; test: SEC

B1: catalytic module of human poly(A) polymerase α (residues 1–524) (domain or fragment, UniProt P51003 1-524, looked up)
chain: MPFPVTTQGSQQTQPPQKHYGITSPISLAAPKETDCVLTQKLIETLKPFGVFEEEEELQRRILILGKLNNLVKEWIREISESKNLPQSVIENVGGKIFTFGSYRLGVHTKGADIDALCVAPRHVDRSDFFTSFYDKLKLQEEVKDLRAVEEAFVPVIKLCFDGIEIDILFARLALQTIPEDLDLRDDSLLKNLDIRCIRSLNGCRVTDEILHLVPNIDNFRLTLRAIKLWAKRHNIYSNILGFLGGVSWAMLVARTCQLYPNAIASTLVHKFFLVFSKWEWPNPVLLKQPEECNLNLPVWDPRVNPSDRYHLMPIITPAYPQQNSTYNVSVSTRMVMVEEFKQGLAITDEILLSKAEWSKLFEAPNFFQKYKHYIVLLASAPTEKQRLEWVGLVESKIRILVGSLEKNEFITLAHVNPQSFPAPKENPDKEEFRTMWVIGLVFKKTENSENLSVDLTYDIQSFTDTVYRQAINSKMFEVDMKIAAMHVKRKQLHQLLPNHVLQKKKKHSTEGVKLTALNDSSLD
[1]
  stoichiometry N: 2 PAP per CPSF30–hFip1 complex
[2]
  stoichiometry N: 1 PAP per CPSF30–hFip1 complex
[3]
  stoichiometry N: 1 PAP per CPSF30–hFip1 complex

B2: hFip1 (residues 79–200) (domain or fragment, human, UniProt Q6UN15 79-200, looked up)
chain: TETEDDSDSDSDDDEDDVHVTIGDIKTGAPQYGSYGTAPVNLNIKTGGRVYGTTGTKVKGVDLDAPGSINGVPLLEVDLDSFEDKPWRKPGADLSDYFNYGFNEDTWKAYCEKQKRIRMGLE
[4]
  stoichiometry N: 1 hFip1 per CPSF30
[5]
  stoichiometry N: 1 hFip1 per CPSF30

B3: hFip1 (residues 159–200) S159C/C189S mutant, FAM-labeled (domain or fragment, human, UniProt Q6UN15 159-200, looked up)
chain: C(Fluorescein(5-Mal))FEDKPWRKPGADLSDYFNYGFNEDTWKAYSEKQKRIRMGLE
[6]
  Kd: 0.69 ± 0.31 nM
[7]
  Kd: 220 ± 32 nM
[8]
  Kd: 1.8 ± 0.4 nM

B4: hFip1 (residues 159–200) (domain or fragment, human, UniProt Q6UN15 159-200, looked up)
chain: SFEDKPWRKPGADLSDYFNYGFNEDTWKAYCEKQKRIRMGLE
[9]
  stoichiometry N: 2 hFip1 per CPSF30
[10]
  stoichiometry N: 2 hFip1 per CPSF30
[11]
  stoichiometry N: 1 hFip1 per CPSF30
[12]
  stoichiometry N: 1 hFip1 per CPSF30
